# Columns and labels:
# [1] = molecular target: h-PVRIG-mIgG2a Fc (mouse IgG2a Fc-tagged human PVRIG recombinant protein) (human; mouse) (UniProt Q6DKI7); assay: competition ELISA, coated h-PVRIG-mIgG2a Fc, his-tagged PVRL2 as the ligand that is blocked
# [2] = molecular target: h-PVRIG-his (his-tagged human PVRIG recombinant protein) (human) (UniProt Q6DKI7); assay: ELISA, plate coated with PVRIG-his
# [3] = molecular target: h-PVRIG-his (his-tagged human PVRIG recombinant protein) (human) (UniProt Q6DKI7); assay: Fortebio BLI, antibody on Protein A sensor, his-tagged human PVRIG 64-4 nM, 1:1 fit
# [4] = molecular target: h-PVRIG-mIgG2a Fc (mouse IgG2a Fc-tagged human PVRIG recombinant protein) (human; mouse) (UniProt Q6DKI7); assay: blocking ELISA (method of Example 2-3), human PVRL2 as the ligand that is blocked
# [5] = molecular target: h-PVRIG-his (his-tagged human PVRIG recombinant protein) (human) (UniProt Q6DKI7); assay: ELISA, human PVRIG recombinant protein
# Sequence of h-PVRIG-his (his-tagged human PVRIG recombinant protein) (human) (Q6DKI7 41-171 limits assumed): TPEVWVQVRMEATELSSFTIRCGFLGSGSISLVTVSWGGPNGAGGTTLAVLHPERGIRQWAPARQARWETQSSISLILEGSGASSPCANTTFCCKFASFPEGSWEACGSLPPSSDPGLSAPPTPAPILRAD
# Sequence of h-PVRIG-mIgG2a Fc (mouse IgG2a Fc-tagged human PVRIG recombinant protein) (human; mouse) (Q6DKI7 41-171 limits assumed): as above
binder,measurement,setting,value
"Tab5 (antibody, from another filing, V domains shown) VH: EVQLVESGGGVVKPGGSLRLSCAASGFTFGTSSMNWVRQAPGKGLEWVAVISFDGTEIHYADSVKGRFTISRDNSKSTVFLQMNSLRPDDTALYYCAKGSGNIYFYSGMDVWGQGTTVTVSS VL: DIQMTQSPSTLSASVGDRVTITCRAGQSISGWLAWFQQKPGKAPNLLIYETSTLESGVPSRFSGSGSGTEYTLTISSLQPDDFATYYCQQYYSYPLTFGQGTKVEIKR",IC50,[1],1.16 nM
same,EC50,[2],2.86 nM
same,Kd,[3],0.219 nM
same,koff,[3],1.61e-05 s⁻¹
same,kon,[3],737000 M⁻¹ s⁻¹
same,IC50,[4],0.964 nM
same,EC50,[5],1.41 nM
